In US4734420A, “Anti-hypertensive agents” (priority 1980, dated 1988):

Substrate: CC(C)C[C@H](NC(=O)[C@H](Cc1cnc[nH]1)NC(=O)CNC(=O)c1ccccc1)C(=O)O
Assay: purified protein, by the assay type
Format: biochemical
Details: other: substrate hippuryl-His-Leu, human urinary ACE, pH 8.0
From the text: The role of ACE in the pathogenesis of hypertension has prompted a search for inhibitors of the enzyme that could act as antihypertensive drugs. See for example U.S. Pat. Nos. 3,891,616, 3,947,575, 4,052,511 and 4,053,651. […]. No. 4,046,889 to Ondetti et al., issued Sept. 6, 1977, and in scientific articles by Cushman, D. W. et al., Biochemistry 16, 5484 (1977), and by Ondetti, M. et al., Science 196, 441 (1977). […]. These factors include the source of enzyme, its purity, the substrate used and its concentration, and the composition of the assay buffer. All I50 data reported herein have been performed with the same assay system and same enzyme (human urinary ACE) and with an approximately 1/2 Km level of substrate and are therefore internally consistent. Discrepancies with data obtained by other workers may be observed. Indeed such discrepancies do exist in the literature, for unknown reasons. See, for example, the I50 values for BPP9a reported by Cushman, D. W., et al., Experientia 29, 1032 (1973) and by Dorer, F. E., et al., Biochim. Biophys. Acta 429, 220 (1976).
The inhibitory potency of N^α -[3-(L-α-glutamylthio)-2-D-methyl-propanoyl]-L-proline in vitro was measured in the following assay. […] The enzyme was assayed in 0.05M Hepes buffer, pH 8.0 containing 0.1M NaCl and 0.75M Na2 SO4. […]

B1: Human urinary ACE (Homo sapiens) (protein)
chain: LDPGLQPGNFSADEAGAQLFAQSYNSSAEQVLFQSVAASWAHDTNITAENARRQEEAALLSQEFAEAWGQKAKELYEPIWQNFTDPQLRRIIGAVRTLGSANLPLAKRQQYNALLSNMSRIYSTAKVCLPNKTATCWSLDPDLTNILASSRSYAMLLFAWEGWHNAAGIPLKPLYEDFTALSNEAYKQDGFTDTGAYWRSWYNSPTFEDDLEHLYQQLEPLYLNLHAFVRRALHRRYGDRYINLRGPIPAHLLGDMWAQSWENIYDMVVPFPDKPNLDVTSTMLQQGWNATHMFRVAEEFFTSLELSPMPPEFWEGSMLEKPADGREVVCHASAWDFYNRKDFRIKQCTRVTMDQLSTVHHEMGHIQYYLQYKDLPVSLRRGANPGFHEAIGDVLALSVSTPEHLHKIGLLDRVTNDTESDINYLLKMALEKIAFLPFGYLVDQWRWGVFSGRTPPSRYNFDWWYLRTKYQGICPPVTRNETHFDAGAKFHVPNVTPYIRYFVSFVLQFQFHEALCKEAGYEGPLHQCDIYRSTKAGAKLRKVLQAGSSRPWQEVLKDMVGLDALDAQPLLKYFQPVTQWLQEQNQQNGEVLGWPEYQWHPPLPDNYPEGIDLVTDEAEASKFVEEYDRTSQVVWNEYAEANWNYNTNITTETSKILLQKNMQIANHTLKYGTQARKFDVNQLQNTTIKRIIKKVQDLERAALPAQELEEYNKILLDMETTYSVATVCHPNGSCLQLEPDLTNVMATSRKYEDLLWAWEGWRDKAGRAILQFYPKYVELINQAARLNGYVDAGDSWRSMYETPSLEQDLERLFQELQPLYLNLHAYVRRALHRHYGAQHINLEGPIPAHLLGNMWAQTWSNIYDLVVPFPSAPSMDTTEAMLKQGWTPRRMFKEADDFFTSLGLLPVPPEFWNKSMLEKPTDGREVVCHASAWDFYNGKDFRIKQCTTVNLEDLVVAHHEMGHIQYFMQYKDLPVALREGANPGFHEAIGDVLALSVSTPKHLHSLNLLSSEGGSDEHDINFLMKMALDKIAFIPFSYLVDQWRWRVFDGSITKENYNQEWWSLRLKYQGLCPPVPRTQGDFDPGAKFHIPSSVPYIRYFVSFIIQFQFHEALCQAAGHTGPLHKCDIYQSKEAGQRLATAMKLGFSRPWPEAMQLITGQPNMSASAMLSYFKPLLDWLRTENELHGEKLGWPQYNWTPNSAR
notes: from tissue; host or cells: human urine
With B1 the Km was 200 µM.
